Measurements: the supplement of paper PMC5998384

Tests used:
HeLa Kyoto [1] = assay: solubility change mitosis vs G1/S (difference of NP-40 vs SDS log2 ratios) (log2 ratio difference); higher = more soluble in mitosis
HeLa Kyoto [2] = assay: solubility in G1/S (NP-40 vs SDS abundance) (log2 ratio); higher = more soluble; settings: cell cycle stage: G1/S
HeLa Kyoto [3] = assay: thermal stability score vs G1/S (z-score of summed log2 fold changes over temperatures); higher = more thermally stable than in G1/S
HeLa Kyoto [4] = assay: melting temperature (median over replicates), in situ; higher = more thermally stable
[5] = cell cycle stage: early G1 (4.5 h after nocodazole release)
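For melting temperature (median over replicates), in situ in this document: HeLa Kyoto cells synchronized by double thymidine or nocodazole block, proteins quantified by TMT10plex mass spectrometry, three independent biological replicates.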
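For solubility change mitosis vs G1/S (difference of NP-40 vs SDS log2 ratios) in this document: synchronized HeLa Kyoto cells (double thymidine block for G1/S, nocodazole release for mitosis), protein amounts in NP-40 versus SDS lysates quantified by mass spectrometry, three biological replicates.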
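For solubility in G1/S (NP-40 vs SDS abundance) in this document: HeLa Kyoto cells arrested at G1/S by double thymidine block, proteins quantified by TMT10plex mass spectrometry in mild NP-40 versus SDS extracts, three biological replicates.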
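For thermal stability score vs G1/S (z-score of summed log2 fold changes over temperatures) in this document: synchronized HeLa Kyoto cells, proteins quantified by TMT10plex mass spectrometry, three biological replicates, mitosis taken 0.5 h after nocodazole release, G1/S directly after double thymidine block.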

What does the source list for “MQNYKYDKAIVPESKNGGSPALNNNPRRSGSKRVLLICLDLFCLFMAGLPFLIIETSTIKPYHRGFYCNDESIKYPLKTGETINDAVLCAVGIVIAILAIITGEFYRIYYLKKSRSTIQNPYVAALYKQVGCFLFGCAISQSFTDIAKVSIGRLRPHFLSVCNPDFSQINCSEGYIQNYRCRGDDSKVQEARKSFFSGHASFSMYTMLYLVLYLQARFTWRGARLLRPLLQFTLIMMAFYTGLSRVSDHKHHPSDVLAGFAQGALVACCIVFFVSDLFKTKTTLSLPAPAIRKEILSPVDIIDRNNHHNMM [PLPP3]”?
solubility change mitosis (log2) (HeLa Kyoto [1]): -0.139; solubility in G1/S (log2) (HeLa Kyoto [2]): -0.0783; thermal stability score (HeLa Kyoto [3]; [5]): -1.69; thermal stability score (HeLa Kyoto [3]; cell cycle stage: mitosis): 5.11; melting temperature (HeLa Kyoto [4]; cell cycle stage: G1/S): 57 °C; melting temperature (HeLa Kyoto [4]; cell cycle stage: mitosis): 55.7 °C

“MQRALPGARQHLGAILASASVVVKALCAAVLFLYLLSFAVDTGCLAVTPGYLFPPNFWIWTLATHGLMEQHVWDVAISLTTVVVAGRLLEPLWGALELLIFFSVVNVSVGLLGAFAYLLTYMASFNLVYLFTVRIHGALGFLGGVLVALKQTMGDCVVLRVPQVRVSVMPMLLLALLLLLRLATLLQSPALASYGFGLLSSWVYLRFYQRHSRGRGDMADHFAFATFFPEILQPVVGLLANLVHSLLVKVKICQKTVKRYDVGAPSSITISLPGTDPQDAERRRQLALKALNERLKRVEDQSIWPSMDDDEEESGAKVDSPLPSDKAPTPPGKGAAPESSLITFEAAPPTL [TMEM115]” was tested. Which “solubility change mitosis (log2)” value (HeLa Kyoto [1]) did it give?
The value was 0.0464.

What about the “solubility in G1/S (log2)” value (HeLa Kyoto [2]) of the same sequence?
Its value is -0.146.

And the thermal stability score (HeLa Kyoto [3]; [5])?
The thermal stability score was -2.84.

And the thermal stability score (HeLa Kyoto [3]; cell cycle stage: mitosis)?
Its thermal stability score is -3.54.

And the melting temperature (HeLa Kyoto [4]; cell cycle stage: G1/S)?
Its melting temperature is 55.8 °C.

Which “solubility change mitosis (log2)” value (HeLa Kyoto [1]) does the source give for “MQSTSNHLWLLSDILGQGATANVFRGRHKKTGDLFAIKVFNNISFLRPVDVQMREFEVLKKLNHKNIVKLFAIEEETTTRHKVLIMEFCPCGSLYTVLEEPSNAYGLPESEFLIVLRDVVGGMNHLRENGIVHRDIKPGNIMRVIGEDGQSVYKLTDFGAARELEDDEQFVSLYGTEEYLHPDMYERAVLRKDHQKKYGATVDLWSIGVTFYHAATGSLPFRPFEGPRRNKEVMYKIITGKPSGAISGVQKAENGPIDWSGDMPVSCSLSRGLQVLLTPVLANILEADQEKCWGFDQFFAETSDILHRMVIHVFSLQQMTAHKIYIHSYNTATIFHELVYKQTKIISSNQELIYEGRRLVLEPGRLAQHFPKTTEENPIFVVSREPLNTIGLIYEKISLPKVHPRYDLDGDASMAKAITGVVCYACRIASTLLLYQELMRKGIRWLIELIKDDYNETVHKKTEVVITLDFCIRNIEKTVKVYEKLMKINLEAAELGEISDIHTKLLRLSSSQGTIETSLQDIDSRLSPGGSLADAWAHQEGTHPKDRNVEKLQVLLNCMTEIYYQFKKDKAERRLAYNEEQIHKFDKQKLYYHATKAMTHFTDECVKKYEAFLNKSEEWIRKMLHLRKQLLSLTNQCFDIEEEVSKYQEYTNELQETLPQKMFTASSGIKHTMTPIYPSSNTLVEMTLGMKKLKEEMEGVVKELAENNHILERFGSLTMDGGLRNVDCL [TBK1]” here?
Its value is -0.105.

And the “solubility in G1/S (log2)” value (HeLa Kyoto [2])?
The value was -0.00961.

And the thermal stability score (HeLa Kyoto [3]; [5])?
The thermal stability score was 0.969.

What about the thermal stability score (HeLa Kyoto [3]; cell cycle stage: mitosis) of the same sequence?
Its thermal stability score is 1.43.

And the melting temperature (HeLa Kyoto [4]; cell cycle stage: G1/S)?
Its melting temperature is 48.6 °C.

And the melting temperature (HeLa Kyoto [4]; cell cycle stage: mitosis)?
Its melting temperature is 48.6 °C.

Which “solubility change mitosis (log2)” value (HeLa Kyoto [1]) does the source give for “MQWNVPRTVSRLARRTCLEPHNAGLFGHCQNVKGPLLLYNAESKVVLVQGPQKQWLHLSAAQCVAKERRPLDAHPPQPGVLRHKQGKQHVSFRRVFSSSATAQGTPEKKEEPDPLQDKSISLYQRFKKTFRQYGKVLIPVHLITSGVWFGTFYYAALKGVNVVPFLELIGLPDSVVSILKNSQSGNALTAYALFKIATPARYTVTLGGTSVTVKYLRSHGYMSTPPPVKEYLQDRMEETKELITEKMEETKDRLTEKLQETKEKVSFKKKVE [FAM210A]” here?
Its value is -0.102.

And the “solubility in G1/S (log2)” value (HeLa Kyoto [2])?
Its value is 0.234.

And the thermal stability score (HeLa Kyoto [3]; [5])?
The thermal stability score was -3.65.

What about the thermal stability score (HeLa Kyoto [3]; cell cycle stage: mitosis) of the same sequence?
Its thermal stability score is -2.22.

What about the melting temperature (HeLa Kyoto [4]; cell cycle stage: G1/S) of the same sequence?
The melting temperature was 55.7 °C.

What about the melting temperature (HeLa Kyoto [4]; cell cycle stage: mitosis) of the same sequence?
The melting temperature was 54.9 °C.

“MRAVLAREMDGRRVLGRFWSGWRRGLGVRPVPEDAGFGTEARHQRQPRGSCQRSGPLGDQPFAGLLPKNLSREELVDALRAAVVDRKGPLVTLNKPQGLPVTGKPGELTLFSVLPELSQSLGLREQELQVVRASGKESSGLVLLSSCPQTASRLQKYFTHARRAQRPTATYCAVTDGIPAASEGKIQAALKLEHIDGVNLTVPVKAPSRKDILEGVKKTLSHFRVVATGSGCALVQLQPLTVFSSQLQVHMVLQLCPVLGDHMYSARVGTVLGQRFLLPAENNKPQRQVLDEALLRRLHLTPSQAAQLPLHLHLHRLLLPGTRARDTPVELLAPLPPYFSRTLQCLGLRLQ [RPUSD3]” was tested. Which “solubility change mitosis (log2)” value (HeLa Kyoto [1]) did it give?
The value was 0.0294.

And the “solubility in G1/S (log2)” value (HeLa Kyoto [2])?
The value was 0.193.

And the thermal stability score (HeLa Kyoto [3]; [5])?
Its thermal stability score is -1.94.

And the thermal stability score (HeLa Kyoto [3]; cell cycle stage: mitosis)?
The thermal stability score was 0.774.

And the melting temperature (HeLa Kyoto [4]; cell cycle stage: G1/S)?
Its melting temperature is 50.1 °C.

And the melting temperature (HeLa Kyoto [4]; cell cycle stage: mitosis)?
The melting temperature was 51.2 °C.
